Measurements taken from patent publication US20140274782A1, “AFFINITY REAGENTS AND METHODS FOR DETECTION, PURIFICATION, AND PROTEOMIC ANALYSIS OF METHYLATED PROTEINS” (The Board of Trustees of the Leland Stanford Junior …, priority 2013, published 2014).

Experiments:
[1] = target: CD79A, G9a-methylated (human) (UniProt P11912); test: ProtoArray methylated with G9a SET domain
[2] = target: C1QTNF6, G9a-methylated (human) (UniProt Q9BXI9); test: ProtoArray methylated with G9a SET domain
[3] = target: CCL24, G9a-methylated (human) (UniProt O00175); test: ProtoArray methylated with G9a SET domain
[4] = target: LRRC20, G9a-methylated (human) (UniProt Q8TCA0); test: ProtoArray methylated with G9a SET domain
Sequence of LRRC20, G9a-methylated (human) (Q8TCA0 whole entry, the tested form may be a part): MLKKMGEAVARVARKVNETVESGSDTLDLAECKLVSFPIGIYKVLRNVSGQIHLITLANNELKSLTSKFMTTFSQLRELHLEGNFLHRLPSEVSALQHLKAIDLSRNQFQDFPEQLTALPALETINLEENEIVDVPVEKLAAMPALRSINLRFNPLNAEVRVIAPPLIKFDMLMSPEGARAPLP

[5] = target: KCTD7, G9a-methylated (human) (UniProt Q96MP8); test: ProtoArray methylated with G9a SET domain
Sequence of KCTD7, G9a-methylated (human) (Q96MP8 whole entry, the tested form may be a part): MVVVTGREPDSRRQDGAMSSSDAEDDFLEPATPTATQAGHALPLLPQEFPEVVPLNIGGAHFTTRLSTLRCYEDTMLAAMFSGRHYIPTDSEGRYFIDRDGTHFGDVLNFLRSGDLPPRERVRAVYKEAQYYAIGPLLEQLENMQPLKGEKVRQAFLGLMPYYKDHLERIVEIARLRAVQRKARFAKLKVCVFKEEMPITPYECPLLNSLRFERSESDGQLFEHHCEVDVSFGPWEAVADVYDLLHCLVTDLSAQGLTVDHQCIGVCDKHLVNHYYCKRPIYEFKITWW

[6] = target: GPX1, G9a-methylated (human) (UniProt P07203); test: ProtoArray methylated with G9a SET domain
[7] = target: CALN1, G9a-methylated (human) (UniProt Q9BXU9); test: ProtoArray methylated with G9a SET domain
[8] = target: STK17B, G9a-methylated (human) (UniProt O94768); test: ProtoArray methylated with G9a SET domain
Sequence of STK17B, G9a-methylated (human) (O94768 whole entry, the tested form may be a part): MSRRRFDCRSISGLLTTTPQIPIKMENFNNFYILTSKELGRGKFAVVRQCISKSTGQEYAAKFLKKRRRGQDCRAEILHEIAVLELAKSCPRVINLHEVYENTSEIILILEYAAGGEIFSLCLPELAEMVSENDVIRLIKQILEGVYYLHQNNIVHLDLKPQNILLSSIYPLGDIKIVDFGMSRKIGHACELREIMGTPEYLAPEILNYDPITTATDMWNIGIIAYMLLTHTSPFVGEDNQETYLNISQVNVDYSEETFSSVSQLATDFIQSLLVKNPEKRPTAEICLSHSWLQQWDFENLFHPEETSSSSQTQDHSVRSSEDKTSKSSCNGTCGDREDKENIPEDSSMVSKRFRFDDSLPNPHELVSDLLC

[9] = target: LARP6, G9a-methylated (human) (UniProt Q9BRS8); test: ProtoArray methylated with G9a SET domain
Sequence of LARP6, G9a-methylated (human) (Q9BRS8 other isoform, or with tags, fused parts or gaps limits assumed): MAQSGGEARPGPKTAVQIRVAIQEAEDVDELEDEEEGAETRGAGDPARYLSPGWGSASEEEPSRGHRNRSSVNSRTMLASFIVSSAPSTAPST

[10] = target: KRR1, G9a-methylated (human) (UniProt Q13601); test: ProtoArray methylated with G9a SET domain
[11] = target: CLDN15, G9a-methylated (human) (UniProt P56746); test: ProtoArray methylated with G9a SET domain
Sequence of CLDN15, G9a-methylated (human) (P56746 whole entry, the tested form may be a part): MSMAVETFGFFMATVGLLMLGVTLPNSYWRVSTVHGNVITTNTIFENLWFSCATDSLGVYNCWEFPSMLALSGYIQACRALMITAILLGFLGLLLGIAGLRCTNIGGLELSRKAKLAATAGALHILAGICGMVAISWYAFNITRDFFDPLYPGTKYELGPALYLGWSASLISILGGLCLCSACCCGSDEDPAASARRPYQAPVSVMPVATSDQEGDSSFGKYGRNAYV

[12] = target: PAEP, G9a-methylated (human) (UniProt P09466); test: ProtoArray methylated with G9a SET domain
Sequence of PAEP, G9a-methylated (human) (P09466 19-180 limits assumed): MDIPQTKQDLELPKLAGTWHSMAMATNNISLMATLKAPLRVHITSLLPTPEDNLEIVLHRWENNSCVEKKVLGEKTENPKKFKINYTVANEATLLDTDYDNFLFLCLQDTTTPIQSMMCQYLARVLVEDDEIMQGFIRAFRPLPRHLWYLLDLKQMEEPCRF

[13] = target: DYNC2LI1, G9a-methylated (human) (UniProt Q8TCX1); test: ProtoArray methylated with G9a SET domain
[14] = target: SAR1B, G9a-methylated (human) (UniProt Q9Y6B6); test: ProtoArray methylated with G9a SET domain
Sequence of SAR1B, G9a-methylated (human) (Q9Y6B6 whole entry, the tested form may be a part): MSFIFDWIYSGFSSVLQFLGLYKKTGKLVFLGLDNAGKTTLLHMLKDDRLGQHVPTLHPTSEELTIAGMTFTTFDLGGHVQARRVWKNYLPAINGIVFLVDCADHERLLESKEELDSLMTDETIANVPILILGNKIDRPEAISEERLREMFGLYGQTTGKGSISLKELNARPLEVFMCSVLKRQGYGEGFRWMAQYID

[15] = target: AP1S1, G9a-methylated (human) (UniProt P61966); test: ProtoArray methylated with G9a SET domain
Sequence of AP1S1, G9a-methylated (human) (P61966 whole entry, the tested form may be a part): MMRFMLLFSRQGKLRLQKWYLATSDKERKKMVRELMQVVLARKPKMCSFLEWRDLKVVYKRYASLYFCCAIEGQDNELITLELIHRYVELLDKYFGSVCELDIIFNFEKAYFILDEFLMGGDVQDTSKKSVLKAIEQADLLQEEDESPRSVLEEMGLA

[16] = target: GPX5, G9a-methylated (human) (UniProt O75715); test: ProtoArray methylated with G9a SET domain
[17] = target: TGDS, G9a-methylated (human) (UniProt O95455); test: ProtoArray methylated with G9a SET domain
Sequence of TGDS, G9a-methylated (human) (O95455 whole entry, the tested form may be a part): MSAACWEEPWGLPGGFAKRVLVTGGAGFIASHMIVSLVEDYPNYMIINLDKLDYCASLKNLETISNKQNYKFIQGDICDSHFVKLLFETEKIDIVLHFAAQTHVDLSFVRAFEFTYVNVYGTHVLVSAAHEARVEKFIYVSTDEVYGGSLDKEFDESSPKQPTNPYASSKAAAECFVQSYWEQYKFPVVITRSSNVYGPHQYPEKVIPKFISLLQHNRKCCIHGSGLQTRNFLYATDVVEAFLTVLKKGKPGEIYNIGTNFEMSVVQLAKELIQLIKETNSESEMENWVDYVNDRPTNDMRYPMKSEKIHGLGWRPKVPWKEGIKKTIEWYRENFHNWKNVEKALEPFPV

[18] = target: SNFT, G9a-methylated (human) (UniProt Q9NR55); test: ProtoArray methylated with G9a SET domain
Sequence of SNFT, G9a-methylated (human) (Q9NR55 whole entry, the tested form may be a part): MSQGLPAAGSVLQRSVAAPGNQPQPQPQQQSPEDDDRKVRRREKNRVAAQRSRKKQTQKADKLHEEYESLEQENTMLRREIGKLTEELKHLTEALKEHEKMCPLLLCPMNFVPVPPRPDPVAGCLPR

[19] = target: T1, TMEM32-transmembrane protein 32 (TMEM32) (human) (UniProt Q8N4V1); test: ProtoArray, GST-treated control array
T1 sequence (looked up): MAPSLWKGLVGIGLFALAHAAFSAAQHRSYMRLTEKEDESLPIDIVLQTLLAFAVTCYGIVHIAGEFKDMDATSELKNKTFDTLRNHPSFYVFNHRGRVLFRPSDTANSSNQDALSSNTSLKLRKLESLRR

[20] = target: TEAD4-TEA domain family member 4 (TEAD4), transcript variant 3 (human) (UniProt Q15561); test: ProtoArray, GST-treated control array
[21] = target: DNTT-deoxynucleotidyltransferase, terminal (DNTT), transcript variant 1 (human) (UniProt P04053); test: ProtoArray, GST-treated control array
Sequence of DNTT-deoxynucleotidyltransferase, terminal (DNTT), transcript variant 1 (human) (P04053 whole entry, change not shown): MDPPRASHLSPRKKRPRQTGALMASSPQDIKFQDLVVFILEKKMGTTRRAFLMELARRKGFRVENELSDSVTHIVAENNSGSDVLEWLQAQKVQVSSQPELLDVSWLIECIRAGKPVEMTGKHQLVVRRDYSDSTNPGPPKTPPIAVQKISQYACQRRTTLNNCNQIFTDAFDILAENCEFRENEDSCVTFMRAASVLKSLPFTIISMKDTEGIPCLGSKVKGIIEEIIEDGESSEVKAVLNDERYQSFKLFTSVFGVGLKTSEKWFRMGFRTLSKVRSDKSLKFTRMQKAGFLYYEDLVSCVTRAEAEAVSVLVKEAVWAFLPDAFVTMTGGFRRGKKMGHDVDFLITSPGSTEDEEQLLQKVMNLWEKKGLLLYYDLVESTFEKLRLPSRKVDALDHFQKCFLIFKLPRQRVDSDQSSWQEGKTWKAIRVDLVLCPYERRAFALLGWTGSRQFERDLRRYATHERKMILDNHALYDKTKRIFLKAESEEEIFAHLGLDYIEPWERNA

[22] = target: GYPC-glycophorin C (Gerbich blood group) (GYPC), transcript variant 2 (human) (UniProt P04921); test: ProtoArray, GST-treated control array
Sequence of GYPC-glycophorin C (Gerbich blood group) (GYPC), transcript variant 2 (human) (P04921 other isoform, or with tags, fused parts or gaps mutant): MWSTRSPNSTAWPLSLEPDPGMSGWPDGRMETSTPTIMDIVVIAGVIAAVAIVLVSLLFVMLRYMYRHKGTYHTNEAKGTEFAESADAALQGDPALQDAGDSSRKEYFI

[23] = target: AP1S1-adaptor-related protein complex 1, sigma 1 subunit (AP1S1), transcript variant 1 (human) (UniProt P61966); test: ProtoArray, GST-treated control array
Sequence of AP1S1-adaptor-related protein complex 1, sigma 1 subunit (AP1S1), transcript variant 1 (human) (P61966 whole entry, change not shown, one chain of several): as the sequence (P61966 whole entry, the tested form may be a part) above

[24] = target: GPX5-glutathione peroxidase 5 (epididymal androgen-related protein) (GPX5), transcript variant 2, mRNA. (human) (UniProt O75715); test: ProtoArray, GST-treated control array
[25] = target: CDK10-cyclin-dependent kinase (CDC2-like) 10 (CDK10), transcript variant a (human) (UniProt Q15131); test: ProtoArray, GST-treated control array
Sequence of CDK10-cyclin-dependent kinase (CDC2-like) 10 (CDK10), transcript variant a (human) (Q15131 whole entry, change not shown): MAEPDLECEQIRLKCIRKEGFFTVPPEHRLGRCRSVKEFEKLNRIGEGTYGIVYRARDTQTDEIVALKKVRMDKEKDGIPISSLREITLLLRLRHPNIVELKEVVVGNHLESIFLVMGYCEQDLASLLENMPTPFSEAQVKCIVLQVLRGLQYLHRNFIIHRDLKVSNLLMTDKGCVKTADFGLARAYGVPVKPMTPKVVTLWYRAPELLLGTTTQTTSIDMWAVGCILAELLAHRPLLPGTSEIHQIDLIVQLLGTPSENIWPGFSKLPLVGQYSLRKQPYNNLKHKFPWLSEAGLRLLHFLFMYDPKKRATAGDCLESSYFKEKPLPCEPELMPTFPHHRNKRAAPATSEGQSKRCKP

[26] = target: PAEP-progestagen-associated endometrial protein (placental protein 14, pregnancy-associated endometrial alpha-2-globulin, alpha uterine protein), transcript variant 2 (PAEP) (human) (UniProt P09466); test: ProtoArray, GST-treated control array
Sequence of PAEP-progestagen-associated endometrial protein (placental protein 14, pregnancy-associated endometrial alpha-2-globulin, alpha uterine protein), transcript variant 2 (PAEP) (human) (P09466 19-180, change not shown): as the sequence (P09466 19-180 limits assumed) above

[27] = target: NME7-non-metastatic cells 7, protein expressed in (nucleoside-diphosphate kinase) (NME7), transcript variant 2 (human) (UniProt Q9Y5B8); test: ProtoArray, GST-treated control array
Sequence of NME7-non-metastatic cells 7, protein expressed in (nucleoside-diphosphate kinase) (NME7), transcript variant 2 (human) (Q9Y5B8 37-376, change not shown): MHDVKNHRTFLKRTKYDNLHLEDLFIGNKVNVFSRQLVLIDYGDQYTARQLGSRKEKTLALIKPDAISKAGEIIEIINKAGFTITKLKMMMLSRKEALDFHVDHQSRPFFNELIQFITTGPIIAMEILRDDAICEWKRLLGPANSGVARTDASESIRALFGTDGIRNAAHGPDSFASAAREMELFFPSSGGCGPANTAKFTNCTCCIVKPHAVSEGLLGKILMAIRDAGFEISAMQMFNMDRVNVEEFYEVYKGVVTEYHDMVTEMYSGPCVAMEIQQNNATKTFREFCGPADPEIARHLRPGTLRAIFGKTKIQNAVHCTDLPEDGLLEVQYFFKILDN

[28] = target: RTN1-reticulon 1 (RTN1), transcript variant 3 (human) (UniProt Q16799); test: ProtoArray, GST-treated control array
Sequence of RTN1-reticulon 1 (RTN1), transcript variant 3 (human) (Q16799 other isoform, or with tags, fused parts or gaps mutant): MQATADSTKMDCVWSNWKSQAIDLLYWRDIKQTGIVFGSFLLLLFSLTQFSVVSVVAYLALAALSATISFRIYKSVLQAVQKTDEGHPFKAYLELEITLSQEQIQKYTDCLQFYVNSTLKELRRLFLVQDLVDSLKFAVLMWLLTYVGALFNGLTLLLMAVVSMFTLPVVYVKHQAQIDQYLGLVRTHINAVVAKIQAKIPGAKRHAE

[29] = target: MRPL21-mitochondrial ribosomal protein L21 (MRPL21), nuclear gene encoding mitochondrial protein, transcript variant 1 (human) (UniProt Q7Z2W9); test: ProtoArray, GST-treated control array
[30] = target: LARP6-La ribonucleoprotein domain family, member 6 (LARP6), transcript variant 2 (human) (UniProt Q9BRS8); test: ProtoArray, GST-treated control array
Sequence of LARP6-La ribonucleoprotein domain family, member 6 (LARP6), transcript variant 2 (human) (Q9BRS8 other isoform, or with tags, fused parts or gaps mutant): as the sequence (Q9BRS8 other isoform, or with tags, fused parts or gaps limits assumed) above

[31] = target: WDR45-WD repeat domain 45 (WDR45), transcript variant 1 (human) (UniProt Q9Y484); test: ProtoArray, GST-treated control array
[32] = target: CRB3-crumbs homolog 3 (Drosophila) (CRB3), transcript variant 2 (human) (UniProt Q9BUF7); test: ProtoArray, GST-treated control array
Sequence of CRB3-crumbs homolog 3 (Drosophila) (CRB3), transcript variant 2 (human) (Q9BUF7 27-120, change not shown): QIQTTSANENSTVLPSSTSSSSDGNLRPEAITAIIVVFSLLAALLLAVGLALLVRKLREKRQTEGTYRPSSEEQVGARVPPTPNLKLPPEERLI

[33] = target: DYNC2LI1-dynein, cytoplasmic 2, light intermediate chain 1, mRNA (cDNA clone MGC:12166 IMAGE:3828551), complete cds (human) (UniProt Q8TCX1); test: ProtoArray, GST-treated control array
[34] = target: ACSL4-acyl-CoA synthetase long-chain family member 4 (ACSL4), transcript variant 2 (human) (UniProt O60488); test: ProtoArray, GST-treated control array
[35] = target: VPS29-vacuolar protein sorting 29 homolog (S. cerevisiae) (VPS29), transcript variant 1 (human) (UniProt Q9UBQ0); test: ProtoArray, GST-treated control array
[36] = target: C1QTNF6-C1q and tumor necrosis factor related protein 6 (C1QTNF6), transcript variant 1 (human) (UniProt Q9BXI9); test: ProtoArray, GST-treated control array
Sequence of C1QTNF6-C1q and tumor necrosis factor related protein 6 (C1QTNF6), transcript variant 1 (human) (Q9BXI9 47-278, change not shown): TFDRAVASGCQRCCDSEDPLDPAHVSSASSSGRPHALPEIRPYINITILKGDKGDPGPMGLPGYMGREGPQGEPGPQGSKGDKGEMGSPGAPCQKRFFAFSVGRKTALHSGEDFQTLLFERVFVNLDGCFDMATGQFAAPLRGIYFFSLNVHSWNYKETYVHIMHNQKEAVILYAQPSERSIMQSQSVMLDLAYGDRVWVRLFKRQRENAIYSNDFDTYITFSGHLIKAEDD

[37] = target: ZNF695-zinc finger protein 695 (ZNF695) (human) (UniProt Q8IW36); test: ProtoArray, GST-treated control array

Sequence of C1QTNF6, G9a-methylated (human) (Q9BXI9 47-278 limits assumed): as the sequence (Q9BXI9 47-278, change not shown) above

3× Flag-3×MBT (designed binder)
G9a Average SNR [1]: 13.8
G9a Average SNR [2]: 16.4
G9a Average SNR [3]: 34.5
G9a Average SNR [4]: 32.3
G9a Average SNR [5]: 14.7
G9a Average SNR [6]: 15.8
G9a Average SNR [7]: 18.6
G9a Average SNR [8]: 14.4
G9a Average SNR [9]: 15.6
G9a Average SNR [10]: 29.8
G9a Average SNR [11]: 25
G9a Average SNR [12]: 17.5
G9a Average SNR [13]: 11.6
G9a Average SNR [14]: 19.8
G9a Average SNR [15]: 16.6
G9a Average SNR [16]: 25.5
G9a Average SNR [17]: 13.6
G9a Average SNR [18]: 18.1
GST Average SNR [19]: 1.5
GST Average SNR [20]: 0.753
GST Average SNR [21]: 0.378
GST Average SNR [22]: 0.081
GST Average SNR [23]: 1.2
GST Average SNR [24]: -0.0425
GST Average SNR [25]: 0.366
GST Average SNR [26]: 0.998
GST Average SNR [27]: 0.543
GST Average SNR [28]: 0.954
GST Average SNR [29]: 1.41
GST Average SNR [30]: -1.03
GST Average SNR [31]: 1.35
GST Average SNR [32]: -0.25
GST Average SNR [33]: -0.778
GST Average SNR [34]: 1.41
GST Average SNR [35]: 1.09
GST Average SNR [36]: -0.38
GST Average SNR [37]: 1.5
